Assay results as given in the nanobody polyreactivity screen of Harvey et al. (2022).

Assay: yeast display, Sf9 membrane polyspecificity reagent, FACS + sequencing; frameworks hold sequencing errors
Procedure, shortened: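 Galactose induction of a Saccharomyces cerevisiae BJ5465 synthetic nanobody display library ran 36–48 hours. The cells were then stained for 1 hour at 4 °C with 10% biotinylated, detergent-solubilized Sf9 membrane reagent, pulled down on streptavidin microbeads and FACS-sorted into low and high (top ~1%) gates on expression and reagent-binding fluorescence. Labels for polyreactivity follow the gate of origin.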

Sequence | polyreactivity (PSR sort gate)
QVQLVESGGGLVQAGGSLRLSCAASGRISGYKVMGWYRQAPGKERELVAAISGSGGSTYYADSVKGRFTISRDNAKNTVYLQMNSLKPEDTAVYYCAKATAYPYDYWGQGTQVTVSS | low polyreactivity
QVQLVESGGGLVQAGGSLRLSCAASGRISGYNMGWSRHAPGKERELVAAISNGGSTNYADSVKGRFTISRANAKNTVYLQMNSLKPEDTAVYYCAKLGPRSYSAYRYDYWGQGTQVTVSS | high polyreactivity
QVQLVESGGGLVQAGGSLRLSCAASGRISLSNAMGWYRQAPGKEREFVAAITKRSDRTYYADSVKGRFTISRDNAKNTVYLQMNSLKPEDTAVYYCAAKPLFGTRDDYWGQGTHVTVSS | low polyreactivity
QVQLVESGGGLVQAGGSLRLSCAASGRISNDYAMGWYRQAPGKERELVATITFSGGDTYYADSVKGRFTISRDNAKNTVYLQMNSLKPEDTAVYYCAASKWRSFSGGWWRLLFDYWGQGTQVTVSS | low polyreactivity
QVQLVESGGGLVQAGGSLRLSCAASGRISNDYAMGWYRQAPGKVRELVATITFSGGDTYYADSVKGRFTISRDNAKNTVYLQMNSLKPEDTSVYYCAASKWRSYSGGWWRLLFDYWGQGTQVTVSS | low polyreactivity
QVQLVESGGGLVQAGGSLRLSCAASGRISQIYAMGWYRQAPGKERELVARITSTDSTYYADSVKGRFTISRDNAKNTVYLQMNSLKPEDTAVYYCAASWWSPYDYWGQGTQVTVSS | low polyreactivity
QVQLVESGGGLVQAGGSLRLSCAASGRISQIYAMGWYRQAPGKERELVASISSSGSRTYYADSVKGRFTISRDNAKNTVYLQMNSLKPEDTAVYYCAARWWARSRGPYDYWGQGTQVTVSS | high polyreactivity
QVQLVESGGGLVQAGGSLRLSCAASGRISQIYAMGWYRQAPGTERELVASISSSGSRTYYADSVKGRFTISRDNAKNTVYLQMNSLKPEDTAVYYCAARWWARSNRYDYWGQGTQVTVSS | high polyreactivity
QVQLVESGGGLVQAGGSLRLSCAASGRISRRYAMGWYRQAPGKERELVAAITSGGRTYYADSVKGRFTISRDNAKNTVYLQMNSLKPEDTAVYYCAAAGYLPSTYWGQGTQVTVSS | high polyreactivity
QVQLVESGGGLVQAGGSLRLSCAASGRISSYYAMGWYRQAPGKDREFVARIRWSGGSTYYADSVKGRFTISRDNAKNTVYLQMNSLKPEDTAVYYCAAVPYAYGYTYDYWGQGTQVTVSS | high polyreactivity
QVQLVESGGGLVQAGGSLRLSCAASGRISTFYAMGWYRQAPGKERELVAGIRWRGGSTYYADSVKGRFTISRDNAKNTVYLQMNSLKAEDTAVYYCYSMDYWGQGTQVTVSS | high polyreactivity
QVQLVESGGGLVQAGGSLRLSCAASGRISVFNAMGWYREAPGKERELVAAITSGGSTNYADSVKGRFTISRDNAKNTVYLQMNSLKPEDTAVYYCNADVYHSHEPHYDYWGQGTQVTVSS | low polyreactivity
QVQLVESGGGLVQAGGSLRLSCAASGRISVVNARGWYRQAPGKERELVAAIRRASTNYADSVKGRFTISRDIAKNTVYLQMNILKPEDTAVYYCAARVYGINIFEYWGQGTQVTVSS | high polyreactivity
QVQLVESGGGLVQAGGSLRLSCAASGRISWGYAMGWYRQAPGKERELVAVINFNGGRTYYADSVKGRFTISRDNAKNTVYLQMNSLKPEDTAVYYCAADSGYEYDYWGQGTQVTVSS | low polyreactivity
QVQLVESGGGLVQAGGSLRLSCAASGRISYAYAMGRYRQAPGKERELVAAISGSGGSTYYADSVKWRFTISRDNAKNTVYFQMNTLKPEDTAVYYCAAGSGEYYGGKRYYWGQGTQVTVSS | low polyreactivity
QVQLVESGGGLVQAGGSLRLSCAASGRIVLGYAMGWYRQQPGKEMELVAAISRSGGGTFYADSVKGRFTISRDNAKNTVYLQMNSLKPEDTAVYYCNARRGRASGMDYWGQGTQVTVSS | high polyreactivity
QVQLVESGGGLVQAGGSLRLSCAASGRIVNRYAMGWDRQAPVKERELVAAITYNGGSTYYADSVKGRFTISRDNAKNTVYLQMNSLKPVDTAVYYCNAVEVLDEGWGFWYYYWGQGTQVTVSS | high polyreactivity
QVQLVESGGGLVQAGGSLRLSCAASGRIVRNAMGWYRQSPGKERELVAAISRSGGSTYYADSVKGRFTISRDNAKNTVYLQMNSLKPEDTAVYYCAKRSTSQSLQGEYWGQGTQVTVSS | high polyreactivity
QVQLVESGGGLVQAGGSLRLSCAASGRIVVGYAMGWYRQAPGKERELVAAINRSGSSTYYADSVKGRFTISRDNAKNTVYLQMNSLKPEDTAVYYCNARSGNRYGPRYDYWGQGTQVTVSS | high polyreactivity
QVQLVESGGGLVQAGGSLRLSCAASGRIWWNAMGWYRPAPGNETELVAAIRWSGGITRYADSVKGRFTISRDNAKNTVDLQMHSLKPEDTAVYYCAARLGGSIRSKFDYWGQGTQVTVSS | high polyreactivity
QVQLVESGGGLVQAGGSLRLSCAASGRIYDYNTMGWYRKAPGKERELVAAITGGTGSTYYADSVKGRFTISRDNAKNTVYLQMNSLKPEDTAVYYCAAGFHKRVTPEILYDYWGQGTQVTVSS | low polyreactivity
QVQLVESGGGLVQAGGSLRLSCAASGRIYDYYAMGWYRQAPGKERELVAAISTSGGSTYYADSVKGRFTISRDHAKNTVYLQMKSLKPEDTAVYYCAKDITVTYPGLDYDYWGQVTQVTVSS | low polyreactivity

Sequence | polyreactivity (PSR sort gate)
QVQLVESGGGLVQAGGSLRLSCAASGRIYGANTMGWYRQAPGKERELVAAISWRGTSTYADSVKGRFSISRDNAKNTVYLQMNSLKPEDTAVYYCAARRRGWPQFDYWGQGTQVTVSS | high polyreactivity
QVQLVESGGGLVQAGGSLRLSCAASGRIYGDYAMGWYRQAPGKERELVARITWSGTGTYYADSVKGRFTISRDNAKNTVYLQMNSLKPEDTAVYYCNADWQVKWYYYWGQVTQVTVSS | low polyreactivity
QVQLVESGGGLVQAGGSLRLSCAASGRIYGNAMGWYRQAPGKERELDAAISFSVSSTNYADSVKGRFTISRDNAKNTVYLQMNSLKPEDTAVYYCAADWIGPTYPEMYYWGQGTQVTVSS | low polyreactivity
QVQLVESGGGLVQAGGSLRLSCAASGRIYGTNAMGWYRQAPGKEMELVAAINGSDSSTYYADSVKGRFTISRDNAKNTVYLQINSLKPEDTAVYYCNADWSGAPERSTDGYDYWGQGTQVTVSS | low polyreactivity
QVQLVESGGGLVQAGGSLRLSCAASGRIYGYYGMGWYRQAPGKERELVAAITYRGGSTYYADSVKGRFTISRDNAKNTVYLQMNSLKPEDTAVYYCAADGYSHYRYLYDYWGQGTQVTVSS | low polyreactivity
QVQLVESGGGLVQAGGSLRLSCAASGRIYNSYAMGWYRQAPGKERELVASTNYADSVKGRFTISRDNAKNTVYLQMNSLKPEDSAVYYCARVDVGWQGGEVLFGRFGYWGQGTQVTVSS | low polyreactivity
QVQLVESGGGLVQAGGSLRLSCAASGRIYPKYGMGWYRQAPGKERELVAAITSGTSTYYADSVKGRFTISRDNAKNTVYLQMNSLKPEDTAVYYCAARPTDGSGWPYRWTSDYWGQATQVTVSS | low polyreactivity
QVQLVESGGGLVQAGGSLRLSCAASGRIYRYYAMGWYRQPPAKERELVAAIRRGGSTSYADSVKGRFTISRDNAKNTVYLQMNSLKPEDTAVYYCAATQYYRGYDYWGQGTQVTVSS | high polyreactivity
QVQLVESGGGLVQAGGSLRLSCAASGRIYSFYAMGWYRQAPGKERELVAAITYTDGSTYADSVKGRFTISRDNAKNTVYLQLNSLKPEDTSVYYFATRYRWTPYDFWGQGTQVTVSS | low polyreactivity
QVQLVESGGGLVQAGGSLRLSCAASGRIYSSYAMGRYRQAPGKERELVAAISYSGDRTYYADSVKGRFTISRDNAKNTVYLQMNSLKPEDTAVYYCAARRVTRTTVYRYQYYYWGQGTQVTVSS | high polyreactivity
QVQLVESGGGLVQAGGSLRLSCAASGRIYTRYMGWYRQAPGKEREMVATINWSGGSTYYADSVKGRFTISRDNAKNTVYLQMNSLKPEDTAVYYCNARNVDFYYVQYNGAKIFDYWGQGTQVTVSS | low polyreactivity
QVQLVESGGGLVQAGGSLRLSCAASGRIYTYYTMGWYRQAPGKERELVAAITVRGGRTYYADSVKGRFTISRDNAKNTDYLQMNSLKPEDTAVYYCAARGLVRSYDYWGQVTQVTVSS | high polyreactivity
QVQLVESGGGLVQAGGSLRLSCAASGRLFNYNAMGWYRQAPGKERELVASITVSRGSTYYADSVKGRFTISRDNATNTVYLQMYSLKPEDTAVYNCAADYGSKLDYGYWGQGTQVTVSS | low polyreactivity
QVQLVESGGGLVQAGGSLRLSCAASGRLFSYYAMGWYRPAPGKERELVAGISYRGGSTYYADSVKGRFTISRDNAKNTVYLQMNSLKPEDTAVYYCAARPYSYGQRSLRGYWGQGTQVTVSS | high polyreactivity
QVQLVESGGGLVQAGGSLRLSCAASGRLFYRNAMGWYRQAPGKERELVAAISSSAGSTYYADSVKGRFTISRDNAKNTVYLQMNSLKPEDTAVYYCAASLYSWGQGTQVTVSS | high polyreactivity
QVQLVESGGGLVQAGGSLRLSCAASGRMFGPYTMGWYRQAPGKEREFVAAITRRGGSTYYADSVKGRFTFSRDNAKNTVYLQMNSLKPEDTAVYYCAAVGQNRSLGYSWGQGTQVTVSS | low polyreactivity
QVQLVESGGGLVQAGGSLRLSCAASGRMFSAYAMGWYRQAPGKERELVAAITSVGSTKYADSVKGRFTISRDNAKNTVYLQMNSLKPEDTAVYYCAAEYTRSFYIYYRFGYWGQGTQVTVSS | high polyreactivity
QVQLVESGGGLVQAGGSLRLSCAASGRNFGPYAMGWSRQAPGKERELVASITRSGGRTYYADSVKGRYTISRDNAKNTVYLQMNSLKPEDTAVYYCAAGGFSKSYYYWGQGTQVTVSS | high polyreactivity
QVQLVESGGGLVQAGGSLRLSCAASGRNFGPYAMGWYRQAPGKERELVAVISTRGGITNYADSVKGRFTISRDTAKNTVYVQLNSLKPEDTAVYYCAARFSYPYRIAFNYWGQGTQVTVSS | low polyreactivity
QVQLVESGGGLVQAGGSLRLSCAASGRNFGSYAMGWYRQAPGKERELVAAITSGGSTYYADSVKGRFTISRDNAKNTVYLQMNSLKPEDTAVYYCAARQVRTSKLHMGYWGQGTQVTVSS | low polyreactivity
QVQLVESGGGLVQAGGSLRLSCAASGRNFKHYAMGWYRQAPGKERELVAAISYSGGSPKYADSVKGRFTISRYNAMNTVYLQMNSLKPEDTAVYYCAARFFTPFRFSYDYWGQGTQVTVSS | high polyreactivity
